Measured values: US20240092836A1 (GENEFRONTIER, published 2024)
Bridges are numbered along the chain shown (N, C = ends). Where no end group is shown, it is not given here.

T1: Orencia
T1 sequence (chain, INN chains, looked up, looked up): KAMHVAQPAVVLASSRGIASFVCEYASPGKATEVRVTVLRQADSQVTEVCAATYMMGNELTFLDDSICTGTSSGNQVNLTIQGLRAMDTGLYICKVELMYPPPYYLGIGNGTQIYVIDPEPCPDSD

T2: CTLA-4 expressed on the cell surface of CHO cells (Homo sapiens (Human), UniProt P16410 36-223)
T2 construct: also called CTLA-4 with its natural structure
T2 sequence: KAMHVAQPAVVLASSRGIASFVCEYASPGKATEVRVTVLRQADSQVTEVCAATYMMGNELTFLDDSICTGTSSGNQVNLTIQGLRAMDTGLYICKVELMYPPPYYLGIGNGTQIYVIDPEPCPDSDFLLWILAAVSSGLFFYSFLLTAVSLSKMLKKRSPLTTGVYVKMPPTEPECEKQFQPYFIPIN

T3: CTLA4 of the CTLA4:B7-1[Biotinylated] Inhibitor Screening Assay Kit (BPS Bioscience) (human, UniProt P16410 37-162, limits assumed)
T3 construct: Kit protein
T3 sequence: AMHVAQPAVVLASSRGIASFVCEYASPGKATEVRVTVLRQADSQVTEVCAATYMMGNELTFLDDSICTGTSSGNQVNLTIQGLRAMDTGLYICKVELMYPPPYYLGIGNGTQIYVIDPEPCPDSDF


Assays:
Orencia [1] = biological target: T1, Orencia; experiment: ELISA, signal on Orencia over SA
Procedure: (§1) 10 μL of E. coli cultured medium was added with 90 μL of PBS and 40 μL of lysis reagent (20 μL BugBuster Protein Extraction Reagent (Novagen), 20 μL Lysozyme solution 2.5 mg/mL) to lyse E. coli cells for 1 hour at room temperature. […] In parallel, antigen protein was immobilized overnight at 4° C. in 384-well plates at 100 ng/20 μL per well, and each well was washed twice with 100 μL/well of TBST, added with 100 μL/well of 5% skim milk solution (TBST) for blocking for 1 hour at room temperature, and washed twice with 100 μL/well of TBST to obtain antigen-immobilized plates. 20 μL/well of blocking-treated E. coli extract was added to the antigen-immobilized plates and gently stirred at room temperature using a plate mixer. […] The plates were washed 5 times with 100 μL/well of TBST, and binding of cyclic peptides to the antigen was detected by 20 μL/well of chromogenic substrate (0.4 mg/mL 3,3′,5,5′-Tetramethyl-benzidine, 0.01% hydrogen peroxide). After 15 minutes of reaction at room temperature, the reaction was stopped with 20 μL/well of 2N HCl, and absorbance at 450 nm was measured using a plate reader (infinite F200: TECAN) (Table 5).
(§2) An Error-Prone Library was prepared based on H12SSI-Ctla4-3-02, and Affinity Maturation selection experiments were performed. The cyclic peptide genes obtained in each round were subcloned, 94 single colonies were cultured in 96-well plates, and the CTLA-4 binding activity of each MBP-fused cyclic peptide was examined by ELISA.

Orencia [2] = biological target: T1, Orencia; experiment: ELISA, MBP fusion in E. coli lysate on Orencia
Procedure: as §1, §2

[3] = biological target: T2, CTLA-4 expressed on the cell surface of …; experiment: FACS on CHO cells expressing CTLA-4, synthetic peptide
[4] = biological target: T3, CTLA4 of the CTLA4:B7-1[Biotinylated] …; experiment: CTLA4:B7-1[Biotinylated] Inhibitor Screening Assay Kit, synthetic peptide against biotinylated B7-1
Source text: Inhibitor Screening Assay Kit (BPS Biosciences) as described above.

Row | Binder | S/N(SA) (Orencia [1]) | ELISA A450 (Orencia [2]) | EC50 [3] | IC50 [4]
1 | GGCIHPFLQVVSHHFCGG (peptide, not shown: large carriers; small tags and cut ends, MBP fusion; also called #28) [C4-302mat-1-1-21] | 2.7 | 0.155 | – | –
2 | GGCMHPYLLVVSHHFCGR (peptide, not shown: large carriers; small tags and cut ends, MBP fusion; also called #40) [C4-302mat-2-100-24] | 4 | 0.227 | – | –
3 | CMHPFLPIVSHHFCER (disulfide 1-14 (inferred); also: form used in FACS not given here: biotinylated or N-terminal Gly) [No. #19 synthetic peptide used in FACS] | – | – | 0.47 µM | –
4 | GGCMHPFLRVVSHHFCGG (peptide, not shown: large carriers; small tags and cut ends, MBP fusion; also called #32) [C4-302mat-1-1-37] | 14.2 | 0.665 | – | –
5 | GGCMHPFLRIVSQHFCRR (peptide, not shown: large carriers; small tags and cut ends, MBP fusion; also called #35) [C4-302mat-2-1-24] | 2.4 | 0.14 | – | –
6 | GGCMHPFLQTVSHHFCGG (peptide, not shown: large carriers; small tags and cut ends, MBP fusion; also called #22) [C4-302mat-3-1-35] | 5.3 | 0.299 | – | –
7 | GDCKHPYLLTVSHHFCGR (peptide, not shown: large carriers; small tags and cut ends, MBP fusion; also called #42) [C4-302mat-3-1-25] | 4.3 | 0.264 | – | –
8 | GGCKHPYLPVASHHFCRG (peptide, not shown: large carriers; small tags and cut ends, MBP fusion; also called #14) [C4-302mat-3-1-10] | 10.3 | 0.586 | – | –
9 | GGCMHPFLQVVSHHFCGS (peptide, not shown: large carriers; small tags and cut ends, MBP fusion; also called #26) [C4-302mat-2-1-35] | 17.9 | 0.904 | – | –
10 | GGCKHPFLRVVSHHFCRR (peptide, not shown: large carriers; small tags and cut ends, MBP fusion; also called #34) [C4-302mat-2-1-12] | 8.5 | 0.51 | – | –
11 | GGCMHPFLPIVSHHFCGS (peptide, not shown: large carriers; small tags and cut ends, MBP fusion; also called #18) [C4-302mat-2-100-27] | 25.2 | 1.29 | – | –
12 | GGCKHPFLLIVSHHFCGR (peptide, not shown: large carriers; small tags and cut ends, MBP fusion; also called #45) [C4-302mat-3-100-39] | 2.3 | 0.136 | – | –
13 | GGCMHPFLQVASHHFCGG (peptide, not shown: large carriers; small tags and cut ends, MBP fusion) [C4-302mat-2-1-40] | 6.9 | 0.366 | – | –
14 | GGCMHPFLPVTSHHFCGG (peptide, not shown: large carriers; small tags and cut ends, MBP fusion; also called #17) [C4-302mat-2-1-3] | 14.8 | 0.802 | – | –
15 | GGCMHPFLPILSHHFCAG (peptide, not shown: large carriers; small tags and cut ends, MBP fusion; also called #21) [C4-302mat-3-1-32] | 11.4 | 0.656 | – | –
16 | GGCLHPFLPVVSHHFCGD (peptide, not shown: large carriers; small tags and cut ends, MBP fusion; also called #8) [C4-302mat-2-1-2] | 23.5 | 1.2 | – | –
17 | GGCLHPFLPLVSHHFCGG (peptide, not shown: large carriers; small tags and cut ends, MBP fusion; also called #9) [C4-302mat-2-1-38] | 16.4 | 0.807 | – | –
18 | GGCMHPYLLVASHHFCER (peptide, not shown: large carriers; small tags and cut ends, MBP fusion; also called #39) [C4-302mat-3-1-9] | 8.8 | 0.574 | – | –
19 | GGCMHPYLPVISHHFCGG (peptide, not shown: large carriers; small tags and cut ends, MBP fusion; also called #15) [C4-302mat-2-1-27] | 13.7 | 0.785 | – | –
20 | GGCMHPFLPVVSHHFCGR (peptide, not shown: large carriers; small tags and cut ends, MBP fusion) [C4-302mat-3-100-37] | 18 | 1.17 | – | –
21 | GGCMHPFLPIASLHFCGR (peptide, not shown: large carriers; small tags and cut ends, MBP fusion; also called #20) [C4-302mat-3-1-23] | 19.7 | 1.21 | – | –
22 | GGCLHPFLPIVSHHFCGR (peptide, not shown: large carriers; small tags and cut ends, MBP fusion; also called clone #10; No. #10) [C4-302mat-3-100-44] | 18.5 | 1.14 | – | –
23 | GGCMHPFLPVVSRHFCGR (peptide, not shown: large carriers; small tags and cut ends, MBP fusion; also called #25) [C4-302mat-3-1-12] | 17.9 | 0.95 | – | –
24 | GGCMHPFLLVVSHHFCGG (peptide, not shown: large carriers; small tags and cut ends, MBP fusion; also called original clone; Original) [H12SSI-Ctla4-3-02 (MBP fusion)] | 4.3 | 0.228 | – | –

Row | Binder | S/N(SA) (Orencia [1]) | ELISA A450 (Orencia [2]) | EC50 [3] | IC50 [4]
25 | GGCMHPFLKIASHHFCGG (peptide, not shown: large carriers; small tags and cut ends, MBP fusion; also called #36) [C4-302mat-3-1-8] | 8.2 | 0.555 | – | –
26 | GCMHPFLPIVSHHFCER (disulfide 2-15 (inferred), chemically synthesised, glycine added to the N-terminus; also called synthesized peptide (Clone No. #19)) [Gly-clone #19: GCMHPFLPIVSHHFCER] | – | – | – | 11.5 µM
27 | GGCMHPFLPVVSHHFCRG (peptide, not shown: large carriers; small tags and cut ends, MBP fusion) [C4-302mat-2-100-18] | 16.1 | 0.857 | – | –
28 | GGCRHPFLPIVSRHFCRG (peptide, not shown: large carriers; small tags and cut ends, MBP fusion; also called #11) [C4-302mat-3-1-45] | 11.2 | 0.689 | – | –
29 | GGCMHPFLQVVSHHFCGG (peptide, not shown: large carriers; small tags and cut ends, MBP fusion; also called #27) [C4-302mat-2-100-4] | 9.3 | 0.545 | – | –
30 | GSCMHPFLLVASHHFCRG (peptide, not shown: large carriers; small tags and cut ends, MBP fusion; also called #38) [C4-302mat-2-100-33] | 2.3 | 0.117 | – | –
31 | GGCMHPFLLTVSRHFCGG (peptide, not shown: large carriers; small tags and cut ends, MBP fusion; also called #44) [C4-302mat-3-1-11] | 8.1 | 0.412 | – | –
32 | GGCMHPFLRVVSHHFCGR (peptide, not shown: large carriers; small tags and cut ends, MBP fusion; also called #33) [C4-302mat-3-1-14] | 15.5 | 0.985 | – | –
33 | GGCMHPYLPVISHHFCGR (peptide, not shown: large carriers; small tags and cut ends, MBP fusion; also called #16) [C4-302mat-3-100-12] | 19.4 | 1.18 | – | –
34 | GGCMHPFLPVVSHHFCGG (peptide, not shown: large carriers; small tags and cut ends, MBP fusion) [C4-302mat-1-1-24] | 14.7 | 0.78 | – | –
35 | GGCMHPFLPVASHHFCAG (peptide, not shown: large carriers; small tags and cut ends, MBP fusion) [C4-302mat-3-100-27] | 16.6 | 0.927 | – | –
36 | GGCMHPFLPVASHHFCGG (peptide, not shown: large carriers; small tags and cut ends, MBP fusion) [C4-302mat-1-1-35] | 11.2 | 0.534 | – | –
37 | GGCMHPFLLVVSRHFCGR (peptide, not shown: large carriers; small tags and cut ends, MBP fusion) [C4-302mat-2-100-40] | 3.9 | 0.204 | – | –
38 | GGCMHPFLPVVSHHFCGA (peptide, not shown: large carriers; small tags and cut ends, MBP fusion) [C4-302mat-3-1-48] | 14.6 | 0.903 | – | –
39 | GGCMHPFLPVVSRHFCGG (peptide, not shown: large carriers; small tags and cut ends, MBP fusion; also called #24) [C4-302mat-3-1-5] | 5.9 | 0.438 | – | –
40 | GGCVHPFLPVVSHHFCRG (peptide, not shown: large carriers; small tags and cut ends, MBP fusion; also called #12) [C4-302mat-3-100-20] | 3.7 | 0.221 | – | –
41 | GGCMHPFLLVASHHFCGV (peptide, not shown: large carriers; small tags and cut ends, MBP fusion) [C4-302mat-2-1-37] | 2.3 | 0.12 | – | –
42 | GSCMHPFLPVASRHFCGR (peptide, not shown: large carriers; small tags and cut ends, MBP fusion; also called #23) [C4-302mat-3-1-31] | 13.2 | 0.868 | – | –
43 | GGCMHPYLQVVSHHFCGR (peptide, not shown: large carriers; small tags and cut ends, MBP fusion) [C4-302mat-3-1-2] | 21.9 | 1.45 | – | –
44 | GGCVHPFLQVVSHHFCGG (peptide, not shown: large carriers; small tags and cut ends, MBP fusion; also called #29) [C4-302mat-1-100-23] | 5.4 | 0.25 | – | –
45 | GGCMHPYLLVVSRHFCGR (peptide, not shown: large carriers; small tags and cut ends, MBP fusion; also called #41) [C4-302mat-3-1-15] | 5.4 | 0.351 | – | –
46 | GGCKHPFLPVVSHHFCGG (peptide, not shown: large carriers; small tags and cut ends, MBP fusion; also called #13) [C4-302mat-3-100-9] | 14.4 | 0.779 | – | –
47 | GGCMHPFLPVASHHFCGR (peptide, not shown: large carriers; small tags and cut ends, MBP fusion; also called #6) [C4-302mat-3-1-22] | 18.9 | 1.11 | – | –
